Our source for the KD, first of two (ratio of one of two koff values to kon) and KD, second of two (ratio of one of two koff values to kon) values is publication PMC5577263.

For this assay, the target named is recombinant mouse α-synuclein amyloid fibrils (mouse) (UniProt O55042). The assay is described as follows: SPR. On the technique in general: SPR reads the build-up and loss of mass on a sensor chip optically.

Regarding “recombinant full-length mouse PrP MoPrP(23-231) (from UniProt P04925 23-231) (natural protein)”, the KD, first of two (ratio of one of two koff values to kon) turned out to be 3.1 nM and the KD, second of two (ratio of one of two koff values to kon) came out at 36.5 nM.
